Measurements as given in US20190151328A1 (published 2019).
Values belong to the binder of their own block, whether it stands above or below them.

Biological target: T1, human epidermal growth factor receptor 3 (HER3) (human, UniProt P21860 20-1342)
T1 construct: whole, on cells; also called ErbB3; HER3 protein
Assay: flow cytometry on HCC1569 cells, PE-coupled anti-human secondary antibody; one-site specific binding fit (GraphPad Prism)
Experimental: A human breast cancer cell line HCC1569 (CRL-2330) from ATCC was cultured in an RPMI1640 medium (purchased from Invitrogen Corp., containing 10% […] (manufactured by Invitrogen Corp.) and 2 mM L-glutamine (manufactured by Invitrogen Corp.)). The cells were dissociated from the culture plate using ACCUTASE® SOLUTION (Millipore Corp., SCR005) or EDTA (5 mM, phosphate buffered saline (PBS, 137 mM sodium chloride, 2.7 mM potassium chloride, 1.47 mM potassium dihydrogen phosphate, and 10.5 mM disodium hydrogen phosphate)), and the number of living cells was measured by trypan blue treatment. The same numbers of cells suspended in a fluorescence-activated cell sorting (FACS) buffer (PBS containing 3% FBS and 0.004% sodium azide) were inoculated to 96-well U-bottom plates, and the cells were precipitated by centrifugation and suspended in 100 uL of an ice-cooled antibody or antibody-drug conjugate dilution or FACS buffer.
The cells of each group were reacted with a primary antibody dilution for 45 minutes on ice and then washed with a FACS buffer. […]
FIG. 3 and Table 1 show the mean fluorescence intensity of HCC1569 treated with serial dilutions of U1-59 or each antibody-drug conjugate. The equilibrium binding affinity KD and the maximum binding strength Bmax were calculated using GraphPad Prism software.

Bmax: 29000
B1: Antibody-drug conjugate (3) (antibody, human IgG1, kappa, V domains shown)
VH: QVQLQQWGAGLLKPSETLSLTCAVYGGSFSGYYWSWIRQPPGKGLEWIGEINHSGSTNYNPSLKSRVTISVETSKNQFSLKLSSVTAADTAVYYCARDKWTWYFDLWGRGTLVTVSS
VL: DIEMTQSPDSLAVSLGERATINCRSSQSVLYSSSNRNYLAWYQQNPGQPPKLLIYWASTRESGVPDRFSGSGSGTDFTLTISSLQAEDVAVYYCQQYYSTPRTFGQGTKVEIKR
modifications: may carry one drug-linker molecule (L1 species of Common procedure F); position not given; drug-linker -(Succinimid-3-yl-N)-CH2CH2CH2CH2CH2-C(=O)-GGFG-NH-CH2CH2CH2-C(=O)-(NH-DX) (exatecan) on cysteines by thioether bond at the reduced disulfide bonds of the hinge part; positions not given; average 4.9 drug molecules per antibody (Common procedure E)
notes: also called ADC (3)

Kd: 2.73 nM
B2: Antibody-drug conjugate (13) (antibody, human IgG1, kappa, V domains shown)
VH: B1 VH
VL: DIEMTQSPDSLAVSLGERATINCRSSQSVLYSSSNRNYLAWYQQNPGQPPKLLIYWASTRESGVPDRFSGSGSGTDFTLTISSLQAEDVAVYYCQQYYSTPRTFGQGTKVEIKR
modifications: may carry one drug-linker molecule (L1 species of Common procedure F); position not given; drug-linker -(Succinimid-3-yl-N)-CH2CH2CH2CH2CH2-C(=O)-GGFG-NH-CH2-O-CH2-C(=O)-(NH-DX) (exatecan) on cysteines by thioether bond at the reduced disulfide bonds of the hinge part; positions not given; average 6.2 (Common procedure E) or 7.0 (Common procedure F) drug molecules per antibody
notes: also called ADC (13)
